# Data from the MegaScale stability set (Tsuboyama et al. 2023).
# B1: r16_88_TrROS_Hall (parent)
# chain: EVIELKIKFKTPEQREKLKEIAKKLNAEVVEEKDGEVIIRFKTPEQAERALKEAEKLGAEVEL
# Variants of: B1
# Assay: folding stability dG (cDNA display proteolysis); higher = more stable
# Settings: PBS, room temperature
row,Variant,folding stability dG [kJ/mol]
1,G35M,17.8
2,G35N,18.1
3,G35H,17.4
4,G35P,15.9
5,G35F,17.7
6,G35C,18.7
7,Q46Y,17.5
8,K17C,18.2
9,K17I,17.5
10,L18T,17.4
11,L18V,17.8
12,L18N,12.4
13,L18G,16
14,P44Y,18.4
15,P44L,19.5
16,P44M,19.2
17,P44R,17.5
18,P44K,19.3
19,P44I,18.2
20,E28Y,18.2
21,E28L,17.7
22,A54S,18.6
23,A54Q,15.1
24,A54I,18.5

row,Variant,folding stability dG [kJ/mol]
1,A54M,18.6
2,A54F,18.2
3,K6N,18.4
4,K6V,18.3
5,E45M,18.7
6,E45P,17.4
7,E62Q,18
8,E62D,19.2
9,E32V,19
10,E32R,18
11,E32C,19
12,E32K,18.6
13,K52N,17.8
14,K52V,17.6
15,K52P,16.4
16,K52H,18
17,A59Y,18.8
18,A59G,17.5
19,A59S,17.8
20,K56C,18.4
21,K56T,18.7
22,K56F,17.7
23,K56W,17.8
24,K23R,18.7

row,Variant,folding stability dG [kJ/mol]
1,K23G,18.5
2,K23D,17.1
3,K23Q,17.9
4,E20T,18.8
5,K42F,18.1
6,K42W,17.8
7,K42I,18.3
8,K42Q,16.5
9,K42P,15.9
10,K42Y,18.2
11,R49C,18.5
12,V61E,18
13,V61F,16.9
14,I3R,19.3
15,I3T,19.6
16,I3G,18.7
17,I3Q,19.9
18,I3E,18
19,I3D,18.9
20,I3W,19.7
21,A22R,17.5
22,A22S,17.5
23,A22V,18.3
24,A22D,12.2

row,Variant,folding stability dG [kJ/mol]
1,A22E,17.5
2,T11E,17.3
3,T11S,18.6
4,T11K,17.7
5,T11H,18.5
6,T43C,19.4
7,T43H,19.1
8,T43W,17.9
9,T43G,17.1
10,T43L,19.5
11,E55N,18.5
12,E55Q,18.8
13,E55T,18
14,E55K,18
15,D34T,18.8
16,D34Y,17.9
17,D34A,18.1
18,D34C,18.5
19,D34N,18
20,E16V,18.7
21,E16G,18.9
22,E16K,18.7
23,E16D,17.7
24,P12H,19.2

row,Variant,folding stability dG [kJ/mol]
1,P12S,18.6
2,P12I,18.7
3,P12L,18
4,P12A,18.4
5,P12R,19.8
6,P12V,18.8
7,L25F,19.4
8,L25C,18.2
9,R40F,19.5
10,R40E,16.4
11,F41C,17.9
12,F41D,1.95
13,F41L,16.8
14,F41S,16.8
15,F41M,17.3
16,F41T,15.6
17,I39F,20.6
18,I39M,19.4
19,I39Q,16.7
20,I39G,13.5
21,I39V,18.6
22,I39K,7.02
